Measurements: patent US20260077072A1, “METHODS AND COMPOSITIONS FOR IMAGING MALIGNANCIES IN THE BONE MARROW” (Washington University, priority 2022, published 2026)

Key:
CD-1 mice = experiment: Non-GLP tolerability and toxicity study of Cu-LLP2A V2, single IV bolus; format: in vivo
Experimental: To evaluate the tolerability and toxicity of Cu-CB-TE1A1P-PEG4-LLP2A V2 (Cu-LLP2A V2) tracer/imaging agent when administered once on Day 1 by intravenous (IV) bolus administration to male and female CD-1 mice, the following experiments were conducted. On Day 2 after administering the tracer/imaging agent, the first 10 animals/sex/group (Main Study) were sacrificed and necropsied. The remaining 5 animals/sex/group (Recovery) were weighed and observed for the remainder of the study and necropsied on Day 15.
Each treatment group (Groups 1-2) was comprised of […] CD-1 mice. Mice were administered either vehicle or 0.0604 mg/mouse Cu-LLP2A V2 (Groups 1 and 2, respectively) once on Day 1 via IV bolus injection at a dose volume of 0.125 mL/mouse. Physical examinations were recorded at the time of randomization. Clinical observations were recorded daily. Body weight measurements were taken for randomization and daily. Blood samples for the evaluation of hematology and clinical chemistry were collected on Day 2 (Main Study) and Day 15 (Recovery). Following blood sample collections, a necropsy was conducted. Protocol-specified tissues were collected and evaluated grossly, select organs were weighed, and tissues were fixed for microscopic evaluation. Tissues were subsequently processed and evaluated microscopically.

[1] = reported for other copper radiopharmaceuticals; cited from earlier work
[2] = tested on: osteolytic lesion in the right iliac bone; experiment: 18F-FDG PET/CT of a multiple myeloma patient; format: in vivo, human; conditions: same osteolytic lesion in right iliac bone of MM patient

Q: Which results are given for “Cu-CB-TE1A1P-PEG4-LLP2A V2 [Cu-LLP2A V2]”?
A: Survival (CD-1 mice; 0.0604 mg/mouse IV, until scheduled sacrifice (Day 2 or Day 15)): All animals survived; Tolerability (CD-1 mice; single IV injection of 0.0604 mg/mouse, male and female CD-1 mice): well tolerated; NOEL (No Observable Effect Level) (CD-1 mice; single IV injection, male and female CD-1 mice): 0.0604 mg/mouse

Q: With CN=C([S-])N/N=C(C)/C(C)=N/NC([S-])=NC.[64Cu+2] [^64Cu-ATSM] as the compound, how does the Effective dose [1] read?
A: 0.036 mSv/MBq

Q: Which “SUL-peak (per PERCIST) in lesion” value [2] does the source give for OC[C@H]1OC(O)[C@H]([18F])[C@@H](O)[C@@H]1O (stereo partly drawn) [^18F-FDG, [^18F]fluorodeoxyglucose] here?
A: 2.1

Q: What about the SUV-max in lesion [2] of the same compound?
A: 2.9
